Data from patent publication EP0574512B1.

Assays:
[1] = target: HIV-1 envelope gp120/gp41 complex (HIV-1); experiment: cell-based or functional assay
[2] = target: MHC class II antigen on the Raji B cell line; experiment: cell-based or functional assay

CD4:ζ chimeric receptor
mean effector to target ratio for 50% release (51Cr release cytolysis by CTL) (effector to target ratio) [1]: 1.9 | cytolysis (51Cr release) [2]: 5 % cytolysis
